Test results published in patent US20200317803A1, “ANTI-CD73, ANTI-PD-L1 ANTIBODIES AND CHEMOTHERAPY FOR TREATING TUMORS” (MEDIMMUNE, LLC, priority 2019, published 2020).
Entries after “also recorded” stand apart in the source; their conditions may differ.

Tests used:
EGFRm NSCLC = details: ATLANTIC trial, comparison for EGFRm NSCLC; cited from earlier work
[1] = system: exogenous antigen (KLH) response; assay: single dose cynomolgus monkey study: exogenous antigen (KLH) response; type: in vivo, cynomolgus monkeys; details: single IV 1, 10 or 107.8 mg/kg
Experimental: (§1) Five male cynomolgus monkeys were administered a single IV bolus dose of oleclumab at a dose of 0 mg/kg, 1 mg/kg, 10 mg/kg or 107.8 mg/kg. Serum was collected prior to the first dose at 0.08, 0.5, 2, 8 and 24 hours and 2, 3, 5, 7, 10, 14, 21, 28 and 35 days post dosing.
To determine immune modulation, the exogenous antigen (KLH) response was measured. The exogenous antigen (KLH) response was determined by first immunizing the monkeys on day 1 with adjuvant free KLH. KLH T cell-dependent antibody response (TDAR) was conducted on days 7, 8, 11, 15, 22, 29, and 36. Ex vivo KLH stimulation of PBMC IFN-γ and IL-2 ELISPOT was determined on days 1, 4, 8, 7, 15, and 22.

[2] = Phase 1 study, pharmacokinetics and immunogenicity of oleclumab; type: in vivo; details: human
Experimental: (§2) Safety was assessed by the presence of adverse events (AEs), serious adverse events (SAEs), DLTs, and changes from baseline in laboratory parameters, vital signs, and electrocardiogram results. The endpoints for assessment of antitumor activity included objective response (OR), disease control (DC), duration of response (DoR), progression-free survival (PFS), and overall survival (OS). RECIST v1.1 was used for assessment of tumor response. Pharmacokinetic parameters included, but were not limited to, maximum observed concentration, area under the concentration time curve, clearance, and terminal half-life. The endpoints for assessment of immunogenicity of oleclumab and durvalumab included the number and percentage of subjects who developed detectable anti-drug antibodies and the endpoints for assessment of pharmacodynamic activity included assessment of target expression (e.g., CD73, PD-L1) in tumor biopsy specimens.
(§3) In the oleclumab monotherapy dose-escalation arm, sequential cohorts of 3 to 6 subjects each received 1 of 4 dose levels of oleclumab (5, 10, 20, or 40 mg/kg) via IV infusion Q2W unless the maximum tolerated dose (MTD) was reached before all dose-escalation cohorts were completed (FIG. 8). In the oleclumab/durvalumab combination therapy dose-escalation arm, sequential cohorts of 3 to 6 subjects each received 1 of 4 dose levels of oleclumab (5, 10, 20, or 40 mg/kg) and a single dose level of 10 mg/kg durvalumab via IV infusion Q2W, unless the MTD was reached before all dose-escalation cohorts were completed (FIG. 8). If the MTD of oleclumab was exceeded at the 5 mg/kg dose level in the monotherapy or combination therapy arm, a lower dose level of 2 mg/kg oleclumab was explored in that arm.
The following PK data is based on a total of 97 subjects following treatment with oleclumab 5 to 40 mg/kg Q2W administered either as monotherapy (n=40) or in combination with durvalumab at 10 mg/kg Q2W (n=57). […] Serum exposures were similar when oleclumab was administered either alone or in combination with durvalumab.

[3] = GLP 5-week repeat IV infusion toxicity study in cynomolgus monkeys; type: in vivo
Experimental: (§4) Mouse and cynomolgus monkey were selected as pharmacologically relevant species for evaluation of the toxicity of oleclumab. […] Systemic and local toxicities of oleclumab were evaluated in Good Laboratory Practice (GLP) toxicity studies in CD-1 mice (5-week, repeat intravenous [IV] bolus dose, once every 4 days, total 9 doses) at 0 mg/kg, 100 mg/kg or 200 mg/kg and cynomolgus monkeys (5-week, repeat IV 30-minute infusion dose, once weekly, total 5 doses) at 0 mg/kg, 30.5 mg/kg, 103.7 or 300.7 mg/kg.

[4] = system: blood or peripheral blood mononuclear cell from healthy donors; assay: human in vitro cytokine release assays; type: cell-based; details: in solution or immobilized on plastic wells by dry-coating
Experimental: The ability of oleclumab (alone or in combination with durvalumab) to induce cytokine release was evaluated in human in vitro assays using blood or peripheral blood mononuclear cell from healthy donors.

[5] = GLP 5-week repeat IV bolus dose toxicity study in CD-1 mice; type: in vivo
Experimental: as §4

CD73 [6] = target: T1, CD73 (Homo sapiens, UniProt P21589); assay: pharmacokinetic/pharmacodynamic model and human dose prediction; details: determined from tumor suppression data in syngeneic mice
T1 construct: from tissue; host or cells: patients' serum, peripheral T cells and tumour biopsies
T1 sequence (P21589 27-549): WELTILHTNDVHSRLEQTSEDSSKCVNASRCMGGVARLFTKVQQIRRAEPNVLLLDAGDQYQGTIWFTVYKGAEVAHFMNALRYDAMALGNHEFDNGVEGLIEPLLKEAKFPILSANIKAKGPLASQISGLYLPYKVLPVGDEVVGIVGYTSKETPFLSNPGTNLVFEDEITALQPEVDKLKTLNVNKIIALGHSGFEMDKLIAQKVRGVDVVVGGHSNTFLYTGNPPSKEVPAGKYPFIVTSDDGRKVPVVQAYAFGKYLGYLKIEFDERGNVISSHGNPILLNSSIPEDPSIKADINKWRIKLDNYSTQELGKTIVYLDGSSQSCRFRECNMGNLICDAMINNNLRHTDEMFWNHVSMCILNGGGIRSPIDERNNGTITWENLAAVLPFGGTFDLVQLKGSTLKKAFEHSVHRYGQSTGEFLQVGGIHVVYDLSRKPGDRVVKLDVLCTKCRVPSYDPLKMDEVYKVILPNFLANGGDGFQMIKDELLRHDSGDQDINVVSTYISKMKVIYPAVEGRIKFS
Excerpt: A two-compartment model with linear and target-mediated drug disposition clearance was used to adequately describe the MEDI9447 serum concentration profiles. This model was used to describe the monkey pharmacokinetic data and then resulting parameters were allometrically scaled to humans to predict doses using simulation. (See Example 2.)
FIGS. 6A and 6B show cynomolgus pharmacokinetic modeling and human dose prediction. Cynomolgus serum MEDI9447 concentration profiles (FIG. 6A) were described adequately all three different dose levels by a non-linear model shown schematically in (FIG. 5). Following allometric scaling of the pharmacokinetics parameters from this model, human serum concentration profiles were simulated (FIG. 6B). […] (See Example 2.)
Oleclumab dose selection was based on nonclinical data and clinical safety margins based on nonclinical safety data as described above for mice and monkeys. The pharmacologically driven starting dose level of 5 mg/kg oleclumab was anticipated to have 98% to 91% saturation of CD73 in the first dosing interval (peak and trough, respectively). […] The dose-escalation scheme in this study was designed to achieve higher and more sustained suppression of CD73 target, while maintaining adequate safety margins. […]

CD73 [7] = target: T1, CD73; assay: Phase 1 study, pharmacodynamics (soluble, T cell and tumor CD73); type: in vivo; details: for CD73 surface expression on peripheral T cells (MFI, percent CD73+ CD4 and CD8 cells): human
Experimental: as §2, §3

[8] = system: endogenous pathogen response (EBV, CMV); assay: single dose cynomolgus monkey study: endogenous pathogen response; type: in vivo, cynomolgus monkeys; details: single IV 1, 10 or 107.8 mg/kg
Experimental: as §1
The endogenous pathogen response was also investigated by endogenous pathogen verification. Endogenous pathogen antibodies were measured using chemiluminescent ELISA on days 1, 8, 14, 15, and 29 and endogenous pathogen T cell IFN-γ ELISPOT was measured on days −14 and 29. LCV (monkey homologue of EBV) was detectable at low levels in most cynomolgus monkeys (FIG. 4).

[9] = cynomolgus monkey, in vivo, 300.7 mg/kg

durvalumab: antibody that selectively binds PD-L1 and blocks the binding of PD-L1 to the PD-1 and CD80 receptors
ORR, durvalumab monotherapy (EGFRm NSCLC): 9.8%

oleclumab: human immunoglobulin G1 lambda mAb that selectively binds to and inhibits the ectonucleotidase activity of CD73; VL SEQ ID NO: 1, VH SEQ ID NO: 2
T cell responses to ex vivo KLH stimulation (IFN-γ, IL-2 ELISPOT of PBMC) [1]: did not vary with oleclumab treatment; also recorded: did not increase | anti-KLH IgM and IgG antibody responses (KLH TDAR) [1]: did not show dose-dependent increase; also recorded: did not enhance | responses to exogenous antigen (KLH) [1]: did not enhance responses | anti-drug antibodies (ADAs) [2]: No ADAs were detected | estimated effective half-life in the dosing duration [2]: ~13 days | serum concentration expected to saturate >99% CD73 [2]: above 40 μg/mL | serum exposures alone versus in combination with durvalumab ([2]; 5 to 40 mg/kg Q2W): similar | increase of Ctrough with dose ([2]; from oleclumab 5 to 10 mg/kg): more than proportional | increase of Ctrough with dose ([2]; from oleclumab 10 to 40 mg/kg): approximately dose proportional | PK linearity at lowest dose ([2]; oleclumab 5 mg/kg Q2W, monotherapy and combination cohorts): nonlinear PK | PK linearity at higher doses ([2]; oleclumab 10 mg/kg and higher Q2W): Linear PK | effects on safety pharmacology endpoints (ECGs, blood pressure, behavioral examinations) ([3]; cynomolgus monkey, in vivo): no oleclumab-related effects | AUC0-168.5hr [3, 9]: 834,000 μg·hr/mL | Cmax [3, 9]: 11,000 μg/mL | no-observed-adverse-effect level (NOAEL) ([3]; cynomolgus monkeys, highest dose tested): 300.7 mg/kg/dose | cytokine release [4]: did not induce cytokine release | no-observed-adverse-effect level (NOAEL) ([5]; CD-1 mice, highest dose tested): 200 mg/kg/dose | AUC0-96hr ([5]; mouse, in vivo, 200 mg/kg): 229,000 μg·hr/mL | Cmax ([5]; mouse, in vivo, 200 mg/kg): 6,200 μg/mL | tissue cross reactivity staining (human tissue panel): staining with oleclumab was observed in multiple cell types | serum exposure target (CD73 [6]): 52 µg/mL | CD73 staining tumor cells by IHC (CD73 [7]; 40 mg/kg dose, 20 days after treatment initiation): decrease in CD73 staining tumor cells | total CD4 and CD8 cells (CD73 [7]; human peripheral blood, across all doses): without a concomitant decrease | CD73 enzymatic activity in tumor microenvironment (CD73 [7]; human tumor staining): inhibited CD73 enzymatic activity | CD73 surface expression on peripheral T cells (MFI, percent CD73+ CD4 and CD8 cells) (CD73 [7]; across all doses): decreased CD73 on peripheral T cells | CD73 surface expression on peripheral T cells (MFI, percent CD73+ CD4 and CD8 cells) (CD73 [7]; across all doses, listed as Oleclumab): decreased CD73 surface expression | free serum soluble CD73 levels (CD73 [7]; majority of subjects at all times after the first dose, limit of detection): < 0.25 ng/mL | patients with decreased tumoral CD73 expression (CD73 [7]; oleclumab alone, patients who expressed >5% 2+/3+ CD73 at baseline): 5/9 | CD8+ TILs (CD73 [7]; samples with decreased tumoral CD73): increasing CD8+ TILs in all 5 samples | IgG titers to EBV gp125 and CMV gB [8]: did not vary with oleclumab treatment | T cell responses to EBV BZLF1 and inactivated human CMV [8]: did not vary consistently with oleclumab treatment
